The source of these data is publication PMC5927464 (2018).

The chains are these.
B2: (His)6-L* (purified recombinant L*DA) (natural protein)
chain: MDTQMCALFAQPLTLLPDLNICSWQTVNGSQRTFFVWTWTMTSSGLRTRAINLKQWNGLTYRSYAILSWNPRETPLHLTRVTPSPQVTKGSLLTTSIPINTKIQLICLPAVAMLATPPKTTDNCRTSWAALQMLLLLWHLSSWIKTQRRWRISLTE

Data set [1] concerns the target T1, mouse RNase L (Mus musculus (mouse)) (UniProt Q05921).
T1 sequence: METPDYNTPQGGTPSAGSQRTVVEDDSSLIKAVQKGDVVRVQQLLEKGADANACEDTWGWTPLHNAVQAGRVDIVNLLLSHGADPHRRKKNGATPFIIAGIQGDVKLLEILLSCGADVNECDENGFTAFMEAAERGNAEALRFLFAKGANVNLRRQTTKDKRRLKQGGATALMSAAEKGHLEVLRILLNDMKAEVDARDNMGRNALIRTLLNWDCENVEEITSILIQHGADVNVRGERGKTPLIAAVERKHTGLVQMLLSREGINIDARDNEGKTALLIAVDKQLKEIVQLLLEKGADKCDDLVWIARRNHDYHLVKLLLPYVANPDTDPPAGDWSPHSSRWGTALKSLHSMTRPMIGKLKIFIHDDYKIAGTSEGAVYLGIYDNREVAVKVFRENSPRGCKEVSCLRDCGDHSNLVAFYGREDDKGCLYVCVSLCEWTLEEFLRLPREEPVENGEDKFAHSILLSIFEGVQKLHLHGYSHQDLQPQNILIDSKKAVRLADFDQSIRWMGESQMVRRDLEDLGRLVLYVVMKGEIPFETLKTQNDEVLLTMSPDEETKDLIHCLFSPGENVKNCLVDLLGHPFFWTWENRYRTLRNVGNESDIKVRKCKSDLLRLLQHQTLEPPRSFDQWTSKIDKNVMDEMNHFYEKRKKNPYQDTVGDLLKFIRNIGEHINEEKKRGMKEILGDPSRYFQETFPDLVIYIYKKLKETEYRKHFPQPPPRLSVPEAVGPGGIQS
Nature of the data set: SPR competition. The note with it: 2'-5' phosphodiester linkages; 5'-triphosphate; trimer p3A2'p5'A2'p5'A assumed (oligomer length used in SPR not stated); SPR on Biacore 3000; HBS-P SPR buffer (0.005% surfactant P20), 10 ul/min, 3 min association, 5 min dissociation, 25 C stated for GST-RNase L capture; 1:1 …. (Surface plasmon resonance follows binding to a sensor surface in real time, without labels.)

Data set [2] addresses B2. Nature of the data set: SPR; immobilized L*.
In data set [3] the target is (His)6-L* (purified recombinant L*DA) (Theiler's murine encephalomyelitis virus, strain DA). As to the kind of experiment: SPR; Biacore 3000; (His)6-L* immobilized on Ni-NTA chips, mouse or human RNase L injected; 10 μl/min, 3 min association, 5 min dissociation; 1:1 Langmuir model, global fitting.
Data set [4] addresses B2. As to the kind of experiment: SPR; immobilized L*.
In data set [5] the target is T2, purified recombinant GST-tagged murine RNase L (mouse, UniProt Q05921 1-735).
T2 chain: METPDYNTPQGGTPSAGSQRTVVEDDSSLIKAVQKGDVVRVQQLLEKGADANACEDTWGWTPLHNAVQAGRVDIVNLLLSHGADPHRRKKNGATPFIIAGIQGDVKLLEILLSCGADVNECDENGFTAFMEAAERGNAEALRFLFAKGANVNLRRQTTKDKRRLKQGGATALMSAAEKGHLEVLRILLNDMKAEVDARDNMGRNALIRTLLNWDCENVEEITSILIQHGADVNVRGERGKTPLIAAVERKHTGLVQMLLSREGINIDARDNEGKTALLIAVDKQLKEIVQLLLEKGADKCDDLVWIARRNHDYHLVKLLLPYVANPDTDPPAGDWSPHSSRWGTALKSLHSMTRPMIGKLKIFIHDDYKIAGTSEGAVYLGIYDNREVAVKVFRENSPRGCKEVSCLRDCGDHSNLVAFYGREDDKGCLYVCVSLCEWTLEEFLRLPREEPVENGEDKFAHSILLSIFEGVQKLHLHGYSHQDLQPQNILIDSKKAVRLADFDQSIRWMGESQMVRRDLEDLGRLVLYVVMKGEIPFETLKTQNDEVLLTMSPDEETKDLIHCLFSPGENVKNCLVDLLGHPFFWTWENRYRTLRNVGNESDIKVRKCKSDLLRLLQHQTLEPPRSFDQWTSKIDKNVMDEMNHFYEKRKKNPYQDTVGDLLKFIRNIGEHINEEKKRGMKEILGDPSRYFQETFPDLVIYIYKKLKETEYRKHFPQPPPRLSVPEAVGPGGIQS
As to the kind of experiment: SPR; immobilized mouse RNase L.

In data set [6] the target is T2, purified recombinant GST-tagged murine …. Nature of the data set: SPR; immobilized mouse RNase L.
The target is the same in data set [7]. As to the kind of experiment: SPR; immobilized mouse RNase L.

A word on the IC50: it is the concentration at which inhibition is half-maximal. What is called Kd is a measure of binding affinity in units of concentration. What is called koff is a measure of how fast the partners let go of each other.

Consider AAA [2-5A (unlabeled)], for which, in data set [1], the half-maximal inhibitory concentration (IC50) amounted to 13.2 nM. This lies in the double-digit nanomolar range.

B1: purified recombinant mouse RNase L (enzyme)
chain: METPDYNTPQGGTPSAGSQRTVVEDDSSLIKAVQKGDVVRVQQLLEKGADANACEDTWGWTPLHNAVQAGRVDIVNLLLSHGADPHRRKKNGATPFIIAGIQGDVKLLEILLSCGADVNECDENGFTAFMEAAERGNAEALRFLFAKGANVNLRRQTTKDKRRLKQGGATALMSAAEKGHLEVLRILLNDMKAEVDARDNMGRNALIRTLLNWDCENVEEITSILIQHGADVNVRGERGKTPLIAAVERKHTGLVQMLLSREGINIDARDNEGKTALLIAVDKQLKEIVQLLLEKGADKCDDLVWIARRNHDYHLVKLLLPYVANPDTDPPAGDWSPHSSRWGTALKSLHSMTRPMIGKLKIFIHDDYKIAGTSEGAVYLGIYDNREVAVKVFRENSPRGCKEVSCLRDCGDHSNLVAFYGREDDKGCLYVCVSLCEWTLEEFLRLPREEPVENGEDKFAHSILLSIFEGVQKLHLHGYSHQDLQPQNILIDSKKAVRLADFDQSIRWMGESQMVRRDLEDLGRLVLYVVMKGEIPFETLKTQNDEVLLTMSPDEETKDLIHCLFSPGENVKNCLVDLLGHPFFWTWENRYRTLRNVGNESDIKVRKCKSDLLRLLQHQTLEPPRSFDQWTSKIDKNVMDEMNHFYEKRKKNPYQDTVGDLLKFIRNIGEHINEEKKRGMKEILGDPSRYFQETFPDLVIYIYKKLKETEYRKHFPQPPPRLSVPEAVGPGGIQS
As to B1, in data set [2], the Ka turned out to be 760000 M⁻¹. Moreover, the dissociation constant Kd in data set [3] amounted to 1300 nM. In addition, in data set [4], the koff came to 0.0027 s⁻¹.
For the molecule B2, the off-rate (koff) in data set [5] was determined as 0.0015 s⁻¹. Moreover, the Ka in data set [6] was 2e+06 M⁻¹. In addition, the Kd in data set [7] came to 490 nM.
